From patent US9988424 (DUKE UNIVERSITY, dated 2018)
Read-outs that look alike come from different tables or passages of the source.

Assays:
1C.FD6-ZM109 = assay: SPR
J08 C.ZM109.V1V2 [1] = molecular target: J08 C.ZM109.V1V2 (HIV-1); assay: SPR
D.9009SA V1/V2 tags = assay: ELISA, OD405 at 10 ug/ml
A.9004SS V1/V2 tags = molecular target: T1, A.9004SS V1/V2 tags; assay: ELISA, OD405 at 10 ug/ml
T1 V1V2 tags construct: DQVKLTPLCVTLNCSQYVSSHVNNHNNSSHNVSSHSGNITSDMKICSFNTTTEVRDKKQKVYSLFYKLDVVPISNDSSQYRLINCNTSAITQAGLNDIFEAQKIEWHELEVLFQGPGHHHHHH

B.63521_V1/V2 tags = assay: ELISA, OD405 at 10 ug/ml
B.Case A2 V1/V2 tags [2] = assay: ELISA, OD405 at 10 ug/ml
A.Q23 V1V2 tags [3] = molecular target: A.Q23 V1V2 tags (HIV-1); assay: ELISA
D.9009SA V1V2 Tags = molecular target: T2, D.9009SA V1V2 Tags; assay: ELISA, OD405
T2 Env construct: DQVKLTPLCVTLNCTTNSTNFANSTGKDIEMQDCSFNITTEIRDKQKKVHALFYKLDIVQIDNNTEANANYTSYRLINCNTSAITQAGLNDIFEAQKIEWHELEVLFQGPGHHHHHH

B. 681-7 gp140C = assay: ELISA, OD405
B.HXB/BAL gp140CFI = molecular target: T3, B.HXB/BAL gp140CFI (HIV-1, UniProt P04578 33-680); assay: ELISA, OD405 at 10 ug/ml mAb
T3 construct: also called B.HxB/Ba gp140 CFI

B.63521 gp140C = assay: ELISA, OD405 at 10 ug/ml mAb
B.Case A2 V1/V2 Tags [4] = molecular target: T4, B.Case A2 V1/V2 Tags; assay: ELISA, OD405 at 10 ug/ml mAb
T4 Env construct: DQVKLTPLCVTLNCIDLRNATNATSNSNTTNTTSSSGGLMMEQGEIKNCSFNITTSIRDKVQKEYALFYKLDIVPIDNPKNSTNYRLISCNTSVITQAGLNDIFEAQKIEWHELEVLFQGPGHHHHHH

B.63521_V1V2 Tags = molecular target: T5, B.63521_V1V2 Tags; assay: ELISA, OD405 at 10 ug/ml mAb
T5 Env construct: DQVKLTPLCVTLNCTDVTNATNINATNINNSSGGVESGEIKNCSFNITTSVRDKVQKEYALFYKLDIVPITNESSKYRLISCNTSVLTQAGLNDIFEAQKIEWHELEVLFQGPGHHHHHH

A.9004SS V1V2 Tags = molecular target: T6, A.9004SS V1V2 Tags; assay: ELISA, OD405 at 10 ug/ml mAb
T6 Env construct: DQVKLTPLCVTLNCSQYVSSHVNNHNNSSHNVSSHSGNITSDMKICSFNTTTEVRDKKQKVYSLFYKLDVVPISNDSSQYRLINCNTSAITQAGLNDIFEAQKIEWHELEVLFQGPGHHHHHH

J08 B.HXB2/BALV1V2 = molecular target: T7, J08 B.HXB2/BALV1V2 (HIV-1); assay: ELISA
T7 construct: also called J08 B.HXB/BAL V1V2
T7 chain: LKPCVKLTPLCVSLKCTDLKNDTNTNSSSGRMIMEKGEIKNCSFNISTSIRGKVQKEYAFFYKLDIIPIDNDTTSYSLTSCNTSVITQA

J08 C.ZM109.V1V2 [5] = molecular target: J08 C.ZM109.V1V2 (HIV-1); assay: ELISA
J08 A.92RW020V1V2 = J08 A.92RW020V1V2 (HIV-1); assay: ELISA
A.Q23 V1V2 tags [6] = molecular target: A.Q23 V1V2 tags (HIV-1); assay: ELISA; remark: listed apart in the source
AE.A244 gD+ gp120 [7] = molecular target: T8, AE.A244 gD+ gp120 (HIV-1); assay: ELISA
T8 construct: domain: gp120; also called AE.A244 gp120gD+

AE.A244 gD+ gp120 [8] = molecular target: T8, AE.A244 gD+ gp120; assay: ELISA; remark: listed apart in the source
MN gp120 [9] = molecular target: MN gp120 (HIV-1)
92TH023 gp120 [10] = molecular target: 92TH023 gp120 (HIV-1)
[11] = molecular target: T9, AE.A244 V1/V2 Tags N156QN160Q (HIV-1); assay: ELISA
T9 chain: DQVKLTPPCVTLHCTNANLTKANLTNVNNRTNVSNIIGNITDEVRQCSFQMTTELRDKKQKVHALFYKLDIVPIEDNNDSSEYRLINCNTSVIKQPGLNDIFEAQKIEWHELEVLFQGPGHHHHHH

MN gp120 [12] = molecular target: MN gp120 (HIV-1); remark: listed apart in the source
92TH023 gp120 [13] = molecular target: 92TH023 gp120 (HIV-1); remark: listed apart in the source

B1: PG9 (antibody, V domains shown)
VH: QRLVESGGGVVQPGSSLRLSCAASGFDFSRQGMHWVRQAPGQGLEWVAFIKYDGSEKYHADSVWGRLSISRDNSKDTLYLQMNSLRVEDTATYFCVREAGGPDYRNGYNYYDFYDGYYNYHYMDVWGKGTTVTVSS
VL: QSALTQPASVSGSPGQSITISCNGTSNDVGGYESVSWYQQHPGKAPKVVIYDVSKRPSGVSNRFSGSKSGNTASLTISGLQAEDEGDYYCKSLTSTRRRVFGTGTKLTVL
notes: also called mAb PG9; bnAb PG9
Q: Which Kd (1C.FD6-ZM109) does the source give for B1 here?
A: 4820 nM

Q: And the Kd (J08 C.ZM109.V1V2 [1])?
A: 318 nM

Q: Does B1 bind (D.9009SA V1/V2 tags)?
A: no binding (tested: 10 ug/ml)

Q: Does B1 bind (A.9004SS V1/V2 tags)?
A: binds

Q: Does B1 bind (B.63521_V1/V2 tags)?
A: binds

Q: Does B1 bind (B.Case A2 V1/V2 tags [2])?
A: binds

Q: And the EC50 (A.Q23 V1V2 tags [3])?
A: 14.9 nM

Q: Does B1 bind (D.9009SA V1V2 Tags)?
A: no binding (tested: 10 ug/ml)

Q: Does B1 bind (B. 681-7 gp140C)?
A: no binding (tested: 10 ug/ml)

Q: Does B1 bind (B.HXB/BAL gp140CFI)?
A: binds

Q: Does B1 bind (B.63521 gp140C)?
A: binds

Q: Does B1 bind (B.Case A2 V1/V2 Tags [4])?
A: binds

Q: Does B1 bind (B.63521_V1V2 Tags)?
A: binds

Q: Does B1 bind (A.9004SS V1V2 Tags)?
A: binds

Q: And the EC50 (J08 B.HXB2/BALV1V2)?
A: 149 nM

Q: What about the EC50 (J08 C.ZM109.V1V2 [5]) of the same binder?
A: 0.23 nM

Q: What about the EC50 (J08 A.92RW020V1V2) of the same binder?
A: 64 nM

Q: What about the EC50 (A.Q23 V1V2 tags [6]) of the same binder?
A: 14.9 nM

Q: And the EC50 (AE.A244 gD+ gp120 [7])?
A: 0.7 nM

Q: And the EC50 (AE.A244 gD+ gp120 [8])?
A: 0.7 nM

Q: And the IC50 (MN gp120 [9])?
A: 10 to 100 nM

Q: What about the IC50 (92TH023 gp120 [10]) of the same binder?
A: 100 to 1000 nM

Q: Does B1 bind [11]?
A: no binding (tested: 100 ug/ml)

Q: And the IC50 (MN gp120 [12])?
A: 10 to 100 nM

Q: What about the IC50 (92TH023 gp120 [13]) of the same binder?
A: 100 to 1000 nM
